Measured values reported in the DeepSol protein solubility set.

Experiment: soluble on expression in E. coli; label from the status in PepcDB or PDB records

| Sequence | soluble on expression in E. coli |
| --- | --- |
| MFEAEIDCNIPGALWCGELYVLEQDVVFPDLLRIDRFCTSKSKKMFRFDVYPGSDFPTVDLELTYKFNHNCSADGETYCVKPKWSKKVNGRVGQSVGFDIDARPHGKPSRCKPPFYF | not soluble |
| MCLAIPSVVIDIFEEDGEKYALAEYKGVKQKAKLALIEGVEIGDYVLIHTGYALEKMSEDEAKLSLDAWEELFDVLDEMDGVKKENSE | not soluble |
| MGSDKIHHHHHHVEYRLPAEGSNLVGENQYYVVPEGKLTLEQIASQFQLGLTNLLEANPGVDPFLPKPGSTLLIPHQLILPNAKREGVVINSAEMRLYYYPKGKNTVEVLPIGIGQIGKDTPENWVTTVQRKRANPTWTPTVNIRKSYAAKGITLPAVWPAGADNPMGLFALYVGNLYAVHGTNATFGIGLRVSSGCVRLRDEDIEHLYNSVPVGTRVEFINQPIKATEEPDGNRYLEVHEPLSRTQAEFDSLEPVALSFDKAMTRFVAHPDTDSFTLKRLLEQRTGMPTRINP | not soluble |
| MAHHHHHHMLSIRKCNIYDLLSMQQCNSINLPENYNLRYYFYHALSWPYLSQIAEDVNGKVCGYSLGKLEEDNEYKGHLTSVAVLKTYRKLKLAFYLILQTHQHLKDIYRANNICLHVRVSNNAALNLYYNLLNYKVNGIETQYYGNKENAYLMEHVFAR | not soluble |
| MGSDKIHHHHHHMATPETILSVKDLRVRFRTLDGAVEAVKGINIHVNAGETVAVVGESGSGKSQTMMAAMSLLASNGEATGSVDYRGRNLLTLSKSDLNKVRGAKISMIFQEPMTSLDPLYSIGNQLIEPIRRHRGLNAAEAREEALKLLRLVHIPDPERRMKSYPHEMSGGQRQRVMIAMALANDPDILIADEPTTALDVTIQAQILMLLAELQRKLGMAIVFITHDLGIVRRFADRVYVMRQGEVVEEGEAGAIFANPQHAYTKMLLAAEPTGSKAAPPANAPVVLEGRHVEVTFKIGGGFLAGEPLMLRAVDDISIRLQRNQTIGIVGESGSGKSTLGRALLRLLPSDGLIRFGDRDISTADRQAMRPLRRQMQLVFQDPFGSLSPRMTVGQVITEGLLVHEPNLSGKQRDQRAVEALREVGLDPNARNRYPHEFSGGQRQRIAIARAMILKPKMVVLDEPTSALDRSVQKQIVELLRKLQADHELSYLFISHDLSVVRAMADYIIVMKQGKIVEEGPTEAIFSNPQHVYTQTLMAAAIDVTRFRLSA | not soluble |
| MSLADKAFHTRLINMRRDLHEHPELSFQEVETTKKIRRWLEEEQIEILDVPQLKTGVIAEIKGREDGPVIAIRADIDALPIQEQTNLPFASKVDGTMHACGHDFHTASIIGTAMLLNQRRAELKGTVRFIFQPAEEIAAGARKVLEAGVLNGVSAIFGMHNKPDLPVGTIGVKEGPLMASVDRFEIVIKGKGGHAGIPNNSIDPIAAAGQIISGLQSVVSRNISSLQNAVVSITRVQAGTSWNVIPDQAEMEGTVRTFQKEARQAVPEHMRRVAEGIAAGYGAQAEFKWFPYLPSVQNDGTFLNAASEAAARLGYQTVHAEQSPGGEDFALYQEKIPGFFVWMGTNGTEEWHHPAFTLDEEALTVASQYFAELAVIVLETIKEGGSHHHHHH | soluble |
| DIMVVVDAGHGGKDPGAVGSRGEREKDVVLSIAQLLAKRLKREKGFDVRLVRNDDFFVPLRKRVEFAHKSNADMFISVHADAAPRLTASGASVFALSEGGATSATARFMAQRENGADLLGATSLLNLKDKDPMLAGVILDMSMNATIAASLQLGHTILGSLEGITTLHQKRVEQAGFAVLKSPDVPSILVETGFISNSRDSQRLVTARHQQAVADGLFDGLQRYFQRNPPMDSHLAWMQAQKQEQQA | not soluble |
| VFCAGHGVYWVAYDAGNLIKNGENTVEILTSTGEPGKKMDGRIYGTVLAAACENPKAPMVSYQLLTGNINLHGEGWSENIKEVNDRAEVNFSAGQALNNIDSANLSVVYLTGSKGLPDYIEFNGEIPGVPPQYLVEKCGENVRDIANEVSFDSSGDKGAASSYFDMEHIDVLNYLKADNSAVFVRGFDINGDGKIDDQEGEDYLHPVLAALVLTSKNTESVFPDLYPEIRVSEEELIDGKPVEISLTINNPGGICEENCTAVFLVDGNEISRVPIQMGAAGIHRSGILWSGIKGEHRLELFLD | not soluble |
| MKVTIIGASGRVGSATALLLAKEPFMKDLVLIGREHSINKLEGLREDIYDALAGTRSDANIYVESDENLRIIDESDVVIITSGVPRKEGMSRMDLAKTNAKIVGKYAKKIAEICDTKIFVITNPVDVMTYKALVDSKFERNQVFGLGTHLDSLRFKVAIAKFFGVHIDEVRTRIIGEHGDSMVPLLSATSIGGIPIQKFERFKELPIDEIIEDVKTKGEQIIRLKGGSEFGPAAAILNVVRCIVNNEKRLLTLSAYVDGEFDGIRDVCIGVPVKIGRDGIEEVVSIELDKDEIIAFRKSAEIIKKYCEEVKNL | soluble |
| VGKQLAALAALVGACMLAAGCTNVVDGTAVAADKSGPLHQDPIPVSALEGLLLDLSQINAALGATSMKVWFNAKAMWDWSKSVADKNCLAIDGPAQEKVYAGTGWTAMRGQRLDDSIDDSKKRDHYAIQAVVGFPTAHDAEEFYSSSVQSWSSCSNRRFVEVTPGQDDAAWTVADVVNDNGMLSSSQVQEGGDGWTCQRALTARNNVTIDIVTCAYSQPDLVAIGIANQIAAKVAKQ | not soluble |
| MSLGAIVEVITIKNYSLKSENYEAEIDIPKIRGLKDKNLEQRLNSSFMEDGKRLYHQFQERMEKIQSSKNKGYKSLSLSYSVKNNSKKFLSIEMTKNEIEASSYVSKVHYTIDKKRQIVLTLPMLFKDDKYIKVISDNIKEQMREQMKKDSTKSYFIDEGHHHHHH | not soluble |
| MSLSDKKVLCVEDEEVIRSNLMETLELFFDKVSGAKDGFEALEQAMCDTYDVFIFDISIPHLDGLEVLKRVRQFNKKTPIVILSAHKEQEYLWRAVELKITRYLTKPYDKNSLIKALEEVALELMDYHPLFQISPLHSYDFCRKAMTCKGEMVYLSKKREPTEGHHHHHH | not soluble |
| EPEEVIPSRLDIRVGKIITVEKHPDADSLYVEKIDVGEAEPRTVVSGLVQFVPKEELQDRLVVVLCNLKPQKMRGVESQGMLLCASIEGINRQVEPLDPPAGSAPGEHVFVKGYEKGQPDEELKPKKKVFEKLQADFKISEECIAQWKQTNFMTKLGSISCKSLKGGNISLE | soluble |
| MPSTLQGTFHTYRIIRRLGQGAFGEVSLAGVLETGEVVALKRIHIRNTGGIPDVVVREIKALQSVSHPNVVALLDVFPKGQAIYLVQEYCTTDLAALLRRLPAPPPERIAKGLMLQLCRGLEALHAEGIMHRDVKPSNTLLSAASGTAKLADCGLARPLDGGERPAYTHAVATRWYRAPELLYGARAYGPAVDVWALGLVFAELLGLSPLVPGDNDIDQLGRVIATFGSMEPVWLGVRALPDWGKIAFPHCEPLPLGDLLPGAPAAALEFLAAFLRYDPAKRITAACAVRSTYLTATQPL | not soluble |
| MNIVIAAVGGQGAVLTSKILGTLAQNLGKDVKVSEVHGMSQRGGSVVAYVKFGDKVYSPVVEKGTADIVLAFEMLEGARYVDYLKENGKLVVNTQRIDPMPVITGDMEYPADLGEKLEELNIGYIPVDALSLAKNAGTIKAVNVALIGVLAQNSNIKKEEWIKAIKDTVPEKFLELNLKAFELGYNL | not soluble |
| SLSQIKVLIVDDARFIRDHVTRIVKEHFPEYQIDAAEDGDDGQKAMSKVDYDLILCDWEMPGKSGLELLTWARSQPHYADIPFVMVTEG | soluble |
| MAPAPAAEFWEARYRDTGRVWSGRPNELLVQEAGGLAPGTALDLGCGEGADAVWLASRGWRVTGVDISATALERAAGHADGAGVGDRVLWERHELGPSFPEGSFDLVSAHYLQSPVALDQQAVLRAAARAVAPGGTLLVVMHAGWPSWQTEPPFDAAFPTLDGVLAELALPEGEWSVETRRTARRPLEHHHHHH | not soluble |
| SLKPSRPVETAYLQGQPGTPFPVIRGIGWSEDQGRRPDMEDGMVAISNLAGVANAWLLGIYDGHGGRQMVEMLLQKIHGNVLQHLRSRAIERWQRYRQRAMSRLQDIRRRLDELHFQQQLACRDVRVLMPPTQRLVELLRLGRICEWVLQCEEPSQEGRTETEKSSASKAPTPPSFLTICTEEDVHRALDEAFVQTDVEILQRLTHPSDHKAGCERDARRVESLGGWVFGERVNGMLAIGRAFGDWSLKLPPGKANPPYSPTSGAFDRLLNIFGTSPSHAAEQAAAERKEYVVSNAPDVRSVSLTPERPAQVPGGIRRNSPSSRASESQTAMSGQETGAGRVPGLLVLGCDGLFDVCSDQVVAHLALEFLRQLVAVHPDMSPCEAAKATARMLIEEAIGVRGSTDNVSVMVVLFHSFGFSGRDGVTPSPPTWYAAAAAKFAWLAEGVSRNVFGLPTASPIALPREPEDKTVD | not soluble |
| MGSSHHHHHHNYNIPTTENLYFQGHMNIGLLEALDQLEEEKGISKEEVIPILEKALVSAYRKNFGNSKNVEVVIDRNTGNIKVYQLLEVVEEVEDPATQISLEEAKKIDPLAEVGSIVKKELNVKNFGRIAAQTAKQVLIQRIRELEKEKQFEKYSELKGTVTTAEVIRVMGEWADIRIGKLETRLPKKEWIPGEEIKAGDLVKVYIIDVVKTTKGPKILVSRRVPEFVIGLMKLEIPEVENGIVEIKAIAREPGVRTKVAVASNDPNVDPIGACIGEGGSRIAAILKELKGEKLDVLKWSDDPKQLIANALAPATVIEVEILDKENKAARVLVPPTQLSLAIGKGGQNARLAAKLTGWKIDIKPIMNL | soluble |
| GLDTGALDQQQNNNGRESIRTVNVSVNNAVTKIVSNMSPAVVGVVNIQKSDIWGESGEAGSGSGVIYKKNDHSAYVVTNHHVIEGASQIEISLKDGSRVSADLVGSDQLMDLAVLRVKSDKIKAVADFGNSDKVKSGEPVIAIGNPLGLEFAGSVTQGVISGTERAIPVDSNGDGQPDWNAEVLQTDAAINPGNSGGALLNMDGKVIGINSMKIAESAVEGIGLSIPSKLVIPVIEDLERYGKVKRPFLGIEMKSLSDIASYHWDETLKLPKNVTNGAVVMGVDAFSPAGKAGLKELDVITEFDGYKVNDIVDLRKRLYQKKVGDRVKVKFYRGGKEKSVDIKLSSA | not soluble |
| MNPNFTTEHTWQGRHDPEDGQAGRRVHHIACPIQVGELANQEPGVALIGFECDAGVERNKGRTGAKHAPSLIKQALANLAWHHPIPIYDLGNIRCEGDELEQAQQECAQVIQQALPHARAIVLGGGHEIAWATFQGLAQHFLATGVKQPRIGIINFDAHFDLRTFESELAPVRPSSGTPFNQIHHFCQQQGWDFHYACLGVSRASNTPALFERADKLGVWYVEDKAFSPLSLKDHLTQLQHFIDDCDYLYLTIDLDVFPAASAPGVSAPAARGVSLEALAPYFDRILHYKNKLMIADIAEYNPSFDIDQHTARLAARLCWDIANAMAEQVQSIRHP | soluble |
| MGSDKIHHHHHHMHHRSSPLSRCLNRPSLSENRLVERACLSVGRRPSSSRSRRQHAGRLALLLGTLAPAVVLAQAAPDTVAMPQGINLGGTSFMDGFGSTTPGWTVLEYLRYYDLDAIKNARGDNSPAFRDPQVGVSALLTQLIYVTPYSLGRGSLSFNTIIPLVNYDTSFAADSPVRLRSNGFGMGDISFGPALQMPPVMRDGRVFFFQRFALDLFAPVGKFDRDIAINQGTGFWSIAPQWAFTVQPTDNWEISARINYLYNFRTDRAGGVPPIPGFRFRNGQAGDAVWVNFASSVKVSEQLRVGVNGYFLQQLKDNRTNGERVADSKRMQLYLGPGLSWRVDAKNLFNLNLYIPLDVENSVAGNSVNLMYVHSL | not soluble |
